As a reminder, the stoichiometry N is the number of molecules, sites or subunits per partner or assembly.

Test [1] addresses AfTrax (Archaeoglobus fulgidus Trax homologue, AF2260), wild type (Archaeoglobus fulgidus). The test can be described thus: crystal structure.
The target is the same in test [2]. The test can be described thus: SEC. Background: In gel filtration, larger molecules generally elute earlier.
In test [3] the target is AfTrax D114A catalytic mutant (Archaeoglobus fulgidus). The test is described as follows: crystal structure.

For “AfTrax (Archaeoglobus fulgidus Trax homologue, AF2260), wild type (natural protein)”, the stoichiometry N in test [1] and in test [2] was 8 in each case.
As for “AfTrax D114A catalytic mutant (natural protein)”, the stoichiometry N in test [3] turned out to be 8.

Source of the values: PMC3597040.
